One assay addresses T1, Mouse HARS (mouse, UniProt Q61035 1-509, limits assumed).
T1 construct: also called mouse HRS
T1 sequence: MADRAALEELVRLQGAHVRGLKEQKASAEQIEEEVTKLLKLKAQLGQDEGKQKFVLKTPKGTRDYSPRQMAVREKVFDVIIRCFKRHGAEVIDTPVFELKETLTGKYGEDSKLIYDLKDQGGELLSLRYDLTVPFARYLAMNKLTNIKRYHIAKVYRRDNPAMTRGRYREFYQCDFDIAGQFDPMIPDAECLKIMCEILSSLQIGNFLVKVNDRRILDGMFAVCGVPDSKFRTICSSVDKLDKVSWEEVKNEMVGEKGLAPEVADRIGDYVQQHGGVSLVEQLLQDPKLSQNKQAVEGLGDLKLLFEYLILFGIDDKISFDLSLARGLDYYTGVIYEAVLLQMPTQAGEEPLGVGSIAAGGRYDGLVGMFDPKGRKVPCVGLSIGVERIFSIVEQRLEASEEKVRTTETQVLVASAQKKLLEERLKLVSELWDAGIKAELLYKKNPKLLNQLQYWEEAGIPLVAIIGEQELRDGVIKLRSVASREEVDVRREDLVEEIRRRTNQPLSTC
In words: SPR (ProteOn); HRS protein immobilized, antibody as analyte.

For a further assay, the target named is T2, Human HARS (human, UniProt P12081 1-509, limits assumed).
T2 construct: also called human HRS; human histidyl-tRNA synthetase
T2 sequence: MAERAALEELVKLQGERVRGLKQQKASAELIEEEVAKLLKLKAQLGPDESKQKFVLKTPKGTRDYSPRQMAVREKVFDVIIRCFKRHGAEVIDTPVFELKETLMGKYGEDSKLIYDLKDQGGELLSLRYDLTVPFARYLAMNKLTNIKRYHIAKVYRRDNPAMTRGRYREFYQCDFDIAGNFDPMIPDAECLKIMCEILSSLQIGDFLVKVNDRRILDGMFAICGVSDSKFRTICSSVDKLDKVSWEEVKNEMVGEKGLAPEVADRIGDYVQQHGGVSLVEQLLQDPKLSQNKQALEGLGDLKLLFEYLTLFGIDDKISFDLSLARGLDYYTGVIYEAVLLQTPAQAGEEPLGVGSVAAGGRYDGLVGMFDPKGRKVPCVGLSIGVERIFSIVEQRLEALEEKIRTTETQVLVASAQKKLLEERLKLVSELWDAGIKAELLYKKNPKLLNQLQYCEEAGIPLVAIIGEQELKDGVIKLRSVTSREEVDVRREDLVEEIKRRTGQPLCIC
The assay is described as above.

B1: KL31-241 (antibody, V domains shown)
VH: QVQLVQSGAEVKKPGASVKVSCKASGYTFTDYCIGWIRQAPGQGLEWMGDICPGDAYTNDNEKFKDRATMTADTSTSTAYMELSSLRSEDTAVYYCARGEEQLGLRNAMDYWGQGTSVTVSS
VL: DIVMTQSPDSLAVSLGERATINCQSQSVSTSTYNYMHWYQQKPGQPPKLLIKYASNLESGVPDRFSGSGSGTDFTLTISSLQAEDVATYYCQHSWEIPWTFGGGTKLEIK
notes: Humanized; IgG1m(zf) kappa
Usually Kd stands for the equilibrium constant for the complex coming apart. For the molecule B1, the Kd came out at 5.1 nM in the assay with Mouse HARS and 1.4 nM with Human HARS.

B2: KL31-513 (antibody, IgG4, V domains shown)
VH: QVQLVQSGAEVKKPGASVKVSCKASGYTFTDYCIGWIRQAPGQGLEWMGDICPGDTYTNDNEKFKDRATMTADTSTSTAYMELSSLRSEDTAVYYCARGEEQLGLRNAMDYWGQGTLVTVSS
VL: EIVLTQSPATLSLSPGERATLSCQSQSVSTSTYNYMHWYQQKPGQAPRLLIKYASNLESGIPDRFSGSGSGTDFTLTISRLEPEDFATYYCGHSYEIPWTFGGGTKVEIK
notes: Humanized; IgG4-2 kappa
With B2, the Kd with Mouse HARS came to 1.25 nM; in the assay with Human HARS, 0.116 nM.

B3: KL31-240 (antibody, IgG4, V domains shown)
VH: QVQLVQSGAEVKKPGASVKVSCKASGYTFTDYCIGWIRQAPGQGLEWMGDICPGDTYTNDNEKFKDRATMTADTSTSTAYMELSSLRSEDTAVYYCARGEEQLGLRNAMDYWGQGTLVTVSS
VL: EIVLTQSPATLSLSPGERATLSCQSQSVSTSTYNYMHWYQQKPGQAPRLLIKYASNLESGIPDRFSGSGSGTDFTLTISRLEPEDFATYYCGHSYEIPWTFGGGTKVEIK
notes: Humanized; IgG4 kappa
As to B3, the results for the Kd with Mouse HARS and in the assay with Human HARS were 0.942 nM and 0.104 nM, respectively.

B4: KL31-532 (antibody, V domains shown)
VH: QVQLVQSGAEVKKPGASVKVSCKASGYTFTDYCIGWIRQAPGQGLEWMGDICPGDTYTNDNEKFKDRATMTADTSTSTAYMELSSLRSEDTAVYYCARGEEQLGLRNAMDYWGQGTLVTVSS
VL: DIVMTQSPDSLAVSLGERATINCQSQSVSTSTYNYMHWYQQKPGQPPKLLIKYASNLESGVPDRFSGSGSGTDFTLTISSLQAEDVATYYCGHSYEIPWTFGGGTKVEIK
notes: Humanized; IgG1m(zf) kappa
On to B4, for which the Kd with Mouse HARS is 0.37 nM; in the assay with Human HARS it was 0.064 nM.

B5: AB04-425 (antibody, V domains shown)
VH: QVQLVESGGGLVKPGGSLRLSCAASGFTFSDYYMTWIRQAPGKGLEWVSYISGSFRYTNYADKVKGRFTISRDNAKNSLYLQMNSLRDEDTAVYFCARYVYQVVAIGDLWGQGTLVTVSS
VL: DIQMTQSPSSVSASVGDRVTITCRASQGISSWLAWYQQKPGRAPKLLIFAASSLQSGVPSRFSGSGSGTHFTLTISSLQPEDFATYYCQQAESFPYTFGQGTKLEIK
notes: Human; IgG1m(zf) kappa
On to B5, for which the equilibrium dissociation constant (Kd) with Mouse HARS was 0.127 nM; with Human HARS, 0.01 nM.

B6: AB13-259 (IgG4-2 kappa) (antibody, V domains shown)
VH: QVQLVESGGGLVKPGGSLRLSCAASGFTFSDYYMSWIRQAPGKGLEWVSYISDKSRYTKYTDSVRGRFTISRDNAKNSLYLQMNSLRAEDTAVYYCARYLYQVIAIADAWGQGTLVTVSS
VL: DIQMTQSPSSVSASVGDRVTITCRASQGISSWLAWFQQKPGKAPKLLIFVASNLESGVPSRFSGSGSGTDFTLTISSLQPEDFATYYCQQAESFPYTFGQGTKLEIK
notes: Human
Consider B6, for which the affinity in the assay with Human HARS, expressed as Kd, was 0.029 nM.

B7: AB13-259 (IgG1m(zf) kappa) (antibody, V domains shown)
VH: QVQLVESGGGLVKPGGSLRLSCAASGFTFSDYYMSWIRQAPGKGLEWVSYISDKSRYTKYTDSVRGRFTISRDNAKNSLYLQMNSLRAEDTAVYYCARYLYQVIAIADAWGQGTLVTVSS
VL: DIQMTQSPSSVSASVGDRVTITCRASQGISSWLAWFQQKPGKAPKLLIFVASNLESGVPSRFSGSGSGTDFTLTISSLQPEDFATYYCQQAESFPYTFGQGTKLEIK
notes: Human
B7 gave a Kd in the assay with Human HARS of 0.015 nM.

B8: AB04-168 (antibody, IgG4, V domains shown)
VH: QVQLVESGGGLVKPGGSLRLSCAASGFTFSDYYMTWIRQAPGKGLEWVSYISGSFRYTNYADKVKGRFTISRDNAKNSLYLQMNSLRDEDTAVYFCARYVYQVVAIGDLWGQGTLVTVSS
VL: DIQMTQSPSSVSASVGDRVTITCRASQGISSWLAWYQQKPGRAPKLLIFAASSLQSGVPSRFSGSGSGTHFTLTISSLQPEDFATYYCQQAESFPYTFGQGTKLEIK
notes: Human; IgG4-2 kappa
As for B8, the figures for the Kd in the assay with Mouse HARS and with Human HARS were 0.145 nM and 0.015 nM, respectively.

B9: AB13-112 (IgG1m(za) kappa) (antibody, V domains shown)
VH: QVQLVESGGGLVKPGGSLRLSCAASGFTFSDYYMSWIRQAPGKGLEWVSYISDKSRYTKYTDKVRGRFTISRDNAKNSLYLQMNSLRAEDTAVYYCARYLYQVIAIADAWGQGTLVTVSS
VL: DIQMTQSPSSVSASVGDRVTITCRASQGISSWLAWFQQKPGKAPKLLIFVASNLESGVPSRFSGSGSGTDFTLTISSLQPEDFATYYCQQAESFPYTFGQGTKLEIK
notes: Human
For the molecule B9, the Kd with Mouse HARS and with Human HARS was below 0.001 nM throughout.

B10: AB13-227 (antibody, V domains shown)
VH: QVQLVESGGGLVKPGGSLRLSCAASGFTFSDYYMSWIRQAPGKGLEWVSYISDSSRYTKYTDSVRGRFTISRDNAKNSLYLQMNSLRAEDTAVYYCARYLYQVIAIAKSWGQGTLVTVSS
VL: DIQMTQSPSSVSASVGDRVTITCRASQGISSWLAWFQQKPGKAPKLLIFVASNLESGVPSRFSGSGSGTDFTLTISSLQPEDFATYYCQQAESFPYTFGQGTKLEIK
notes: Human; IgG1m(zf) kappa
B10: the Kd with Human HARS was below 0.05 nM.

B11: AB13-288 (IgG1m(zf) kappa) (antibody, V domains shown)
VH: QVQLVESGGGLVKPGGSLRLSCAASGFTFSDYYMSWIRQAPGKGLEWVSYISDKSRYTKYTDKVRGRFTISRDNAKNSLYLQMNSLRAEDTAVYYCARYLYQVIAIADAWGQGTLVTVSS
VL: DIQMTQSPSSVSASVGDRVTITCRASQGISSWLAWFQQKPGKAPKLLIFVASNLESGVPSRFSGSGSGTDFTLTISSLQPEDFATYYCQQAESFPYTFGQGTKLEIK
notes: Human
For B11, the Kd with Mouse HARS and in the assay with Human HARS was below 0.001 nM in each case.

B12: AB13-166 (antibody, V domains shown)
VH: QVQLVESGGGLVKPGGSLRLSCAASGFTFSDYYMSWIRQAPGKGLEWVSYISDKSRYTKYTPSVRGRFTISRDNAKNSLYLQMNSLRAEDTAVYYCARYLYQVIAIADAWGQGTLVTVSS
VL: DIQMTQSPSSVSASVGDRVTITCRASQGISSWLAWFQQKPGKAPKLLIFVASNLESGVPSRFSGSGSGTDFTLTISSLQPEDFATYYCQQAESFPYTFGQGTKLEIK
notes: Human; IgG1m(zf) kappa
The molecule B12 registered a Kd with Human HARS below 0.001 nM.

B13: AB13-288 (IgG4-2 kappa) (antibody, V domains shown)
VH: QVQLVESGGGLVKPGGSLRLSCAASGFTFSDYYMSWIRQAPGKGLEWVSYISDKSRYTKYTDKVRGRFTISRDNAKNSLYLQMNSLRAEDTAVYYCARYLYQVIAIADAWGQGTLVTVSS
VL: DIQMTQSPSSVSASVGDRVTITCRASQGISSWLAWFQQKPGKAPKLLIFVASNLESGVPSRFSGSGSGTDFTLTISSLQPEDFATYYCQQAESFPYTFGQGTKLEIK
notes: Human
For B13, the results for the Kd with Mouse HARS and with Human HARS were 0.023 nM and below 0.001 nM, respectively.

B14: AB13-147 (antibody, V domains shown)
VH: QVQLVESGGGLVKPGGSLRLSCAASGFTFSDYYMSWIRQAPGKGLEWVSYISDSSRYTKYTDSVRGRFTISRDNAKNSLYLQMNSLRAEDTAVYYCARYLYQVIAIAKSWGQGTLVTVSS
VL: DIQMTQSPSSVSASVGDRVTITCRASQGISSWLAWFQQKPGKAPKLLIFVASNLESGVPSRFSGSGSGTDFTLTISSLQPEDFATYYCQQANSFPYTFGQGTKLEIK
notes: Human; IgG1m(zf) kappa
Consider B14, for which the Kd with Human HARS stood at 0.024 nM.

B15: AB04-439 (antibody, V domains shown)
VH: QVQLVESGGGLVKPGGSLRLSCAASGFTFSDYYMTWIRQAPGKGLEWVSYISGSFRYTNYADSVKGRFTISRDNAKNSLYLQMNSLRDEDTAVYFCARYVYQVVAIGDLWGQGTLVTVSS
VL: DIQMTQSPSSVSASVGDRVTITCRASQGISSWLAWYQQKPGRAPKLLIFAASSLQSGVPSRFSGSGSGTHFTLTISSLQPEDFATYYCQQAESFPYTFGQGTKLEIK
notes: Human; IgG1m(zf) kappa
Turning to B15, the Kd came out at 0.13 nM in the assay with Mouse HARS and 0.048 nM with Human HARS.

B16: AB13-433 (antibody, V domains shown)
VH: QVQLVESGGGLVKPGGSLRLSCAASGFTFSDYYMSWIRQAPGKGLEWVSYISDSSTYTNYTDSVRGRFTISRDNAKNSLYLQMNSLRAEDTAVYYCARYLYQVIAVADSWGQGTLVTVSS
VL: DIQMTQSPSSVSASVGDRVTITCRASQGISSWLAWFQQKPGKAPKLLIYVASNLESGVPSRFSGSGSGTDFTLTISSLQPEDFATYYCQQANSFPYTFGQGTKLEIK
notes: Human; IgG1m(zf) kappa
With B16, the Kd with Mouse HARS and in the assay with Human HARS was 0.21 nM each time.

B17: AB13-112 (IgG4 kappa) (antibody, V domains shown)
VH: QVQLVESGGGLVKPGGSLRLSCAASGFTFSDYYMSWIRQAPGKGLEWVSYISDKSRYTKYTDKVRGRFTISRDNAKNSLYLQMNSLRAEDTAVYYCARYLYQVIAIADAWGQGTLVTVSS
VL: DIQMTQSPSSVSASVGDRVTITCRASQGISSWLAWFQQKPGKAPKLLIFVASNLESGVPSRFSGSGSGTDFTLTISSLQPEDFATYYCQQAESFPYTFGQGTKLEIK
notes: Human
On to B17, for which the values for the Kd in the assay with Mouse HARS and with Human HARS were 0.0025 nM and below 0.001 nM, respectively.

For the origin of these results see patent US20180282402A1 (ATYR PHARMA, published 2018).
